The source of these data is patent US20170114104A1 (KOREA ADVANCED INSTITUTE OF SCIENCE AND TECHNOLOGY, published 2017).

Assay [1] has as its target T1, Biotinylated green fluorescent protein (biotin-GFP) (site-specifically biotinylated in the N-terminal biotinylation peptide (AP, SEQ ID NO: 4) by biotin ligase BirA).
T1 construct: Negatively charged GFP with the N-terminal AP biotinylation peptide
In words: 15 % native-PAGE gel mobility shift, fluorescence of biotin-GFP [a].

Assay [2] addresses T1, Biotinylated green fluorescent protein …. Kind of assay: native-PAGE off-rate under excess biotin, 37 °C.
Assay [3] has the same target. In words: native-PAGE off-rate under excess biotin, 37 °C. This is another data set of the same source.
The target in assay [4] is T2, Biotinylated protein G (biotin-protein G) (site-specifically biotinylated in the N-terminal biotinylation peptide (AP, SEQ ID NO: 4) by BirA; labelled with atto532).
T2 construct: About 12 kDa protein G with the N-terminal AP peptide; also called biotin-protein G-atto532
T2 chain: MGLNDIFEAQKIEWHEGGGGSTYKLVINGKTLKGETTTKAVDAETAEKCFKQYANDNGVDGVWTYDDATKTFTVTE
Kind of assay: native-PAGE off-rate under excess biotin, 37 °C.

Assay [5] deals with T1, Biotinylated green fluorescent protein …. Kind of assay: native-PAGE off-rate under excess biotin, 45 °C.
For assay [6] the target is unchanged. Kind of assay: native-PAGE off-rate under excess biotin, 45 °C; reference streptavidin.

B1: Monomeric rhizavidin with one mutation (1M: S69R) (designed binder)
chain: FDASNFKDFSSIASASSSWQNQSGSTMIIQVDSFGNVSGQYVNRAQGTGCQNSPYPLTGRVNGTFIAFRVGWNNSTENCNSATGWTGYAQVNGNNTEIVTSWNLAYEGGSGPAIEQGQDTFQYVPTTE
Consider B1, for which the binding result in assay [1] is “binds”.

B2: Monodin (MA) (designed binder)
chain: FDASNFKDFSSIASASSSWQNQHGSTMIIQVDSFGNVSGQYVNRAEGTGCQNSPYPLTGRVNGTFIDFSVKWNNSTENCNSNTQWTGYAQVNGNNTEIVTRWNLKYEGGSGPAIWQGQDTFQYVPTTE
notes: Expressed from pET21a and purified on Ni-NTA (His6 tag); also called mRA E115W/S23H/Q46E
As a reminder, the koff is the rate constant with which the complex falls apart. For the molecule B2, the dissociation half-life in assay [2] came out at 8.3 h. For the same molecule, the off-rate constant (koff) is 2.3e-05 s⁻¹ in assay [3], 4.6e-05 s⁻¹ in assay [4] and 6.4e-05 s⁻¹ in assay [5]. Further, the “fold faster off-rate than tetrameric streptavidin” value in assay [6] amounted to 3.4 fold.

B3: Rhizavidin (RA) (other)
chain: FDASNFKDFSSIASASSSWQNQSGSTMIIQVDSFGNVSGQYVNRAQGTGCQNSPYPLTGRVNGTFIAFSVGWNNSTENCNSATGWTGYAQVNGNNTEIVTSWNLAYEGGSGPAIEQGQDTFQYVPTTE
notes: Homodimer; Purified on Ni-NTA; also called dimeric rhizavidin; wild type rhizavidin
B3 came in with a dissociation half-life in assay [2] of 3.8 h. The koff came to 5e-05 s⁻¹ in assay [3], 3.2e-05 s⁻¹ in assay [4] and 6e-05 s⁻¹ in assay [5].
